For series [1], the system named is T1, VEGF165 (Homo sapiens), P15692-4.
T1 sequence: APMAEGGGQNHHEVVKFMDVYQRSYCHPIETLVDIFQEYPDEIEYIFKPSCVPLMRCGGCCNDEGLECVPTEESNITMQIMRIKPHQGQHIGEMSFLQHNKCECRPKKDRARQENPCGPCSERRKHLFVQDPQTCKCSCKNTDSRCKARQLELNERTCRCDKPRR
The series can be described thus: filter. Conditions: 2'-F pyrimidines, 2'-OH purines, 37 C.

Series [2] has as its system VEGF165 (Homo sapiens), P15692-4. The note with it: 2'-NH2 pyrimidines, 2'-OMe purines; CITED US 5811533; cited from earlier work.

Where two headings read alike, the source gives them in different places.

In the case of “GGGAGGACGAUGCGGAGAAUCAGUGAAUGCUUAUAAAUCUCGYGUCAGACGACUCGCCCGA [VT30.3]”, the Kd in series [1] (single determination) is 0.005 nM.
“GGGAGGACGAUGCGGAYCAACCGAUUGACGUUAUGGGACGCUGGUCAGACGACUCGCCCGA [VP30.5]”: the Kd in series [1] (single determination) worked out at 0.008 nM.
“GGGAGGACGAUGCGGCGGYACUUUGGAAGAAUUGAAUUUCCCGCUCAGACGACUCGCCCGA [VP30.26]” came in with a dissociation constant Kd in series [1] (single determination) of 0.01 nM.
Consider “GGGAGGACGAUGCGGUAGGAAGAAUUGGAAGCGCAUUUUCCUCGYCAGACGACUCGCCCGA [VP30.22]”, for which the Kd in series [1] came out at 0.02 nM.
As for “GGGAGGACGAUGCGGYGAACCGAUGGAAUUUUUGGACGCUCGCCUCAGACGACUCGCCCGA [VP30.2]”, in series [1], the Kd is 0.01 nM.
For the substance NX-213, the Kd in series [2] was 0.14 nM.

For orientation: Kd means the equilibrium constant for the complex coming apart.
